Tested on: PSA activatable agent A10 (compound A10)

enzymatically active prostate specific antigen
fluorescence activation (kinetic fluorescence readings, cleavage of the quenched peptide): Test agent (compound A10-0.5 µM final concentration of agent) was activated in the presence of active PSA (0.1 µM final concentration of activated enzyme)

— patent publication US20140050662
